Broadly, the Km is the concentration of substrate that gives half-maximal velocity.

Drawing on article PMC7337054, “Structural basis for differentiation between two classes of thiolase: Degradative vs biosynthetic thiolase” (Journal of Structural Biology: X, 2020), this text covers Km and kcat for 1 protein.

Substrate in this data set: CC(=O)CC(=O)SCCNC(=O)CCNC(=O)[C@H](O)C(C)(C)COP(=O)(O)OP(=O)(O)OC[C@H]1O[C@@H](n2cnc3c(N)ncnc32)[C@H](O)[C@@H]1OP(=O)(O)O
Nature of the data set: purified protein. The class given is biochemical, Pseudomonas putida. Conditions: thiolytic cleavage, 70 μM CoASH, 25 mM MgCl2, 0.1 M Tris-HCl pH 8.3, 37 °C.

B1: PcaF (β-ketoadipyl-CoA thiolase) (Pseudomonas putida KT2440) (protein)
chain: MHDVFICDAIRTPIGRFGGALASVRADDLAAVPLKALIERNPGVQWDQVDEVFFGCANQAGEDNRNVARMALLLAGLPESIPGVTLNRLCASGMDAVGTAFRAIASGEMELVIAGGVESMSRAPFVMGKAESAYSRNMKLEDTTIGWRFINPLMKSQYGVDSMPETADNVADDYQVSRADQDAFALRSQQKAAAAQAAGFFAEEIVPVRIAHKKGEIIVERDEHLRPETTLEALTKLKPVNGPDKTVTAGNASGVNDGAAAMILASAAAVKKHGLTPRARVLGMASGGVAPRVMGIGPVPAVRKLTERLGIAVSDFDVIELNEAFASQGLAVLRELGVADDAPQVNPNGGAIALGHPLGMSGARLVLTALHQLEKSGGRKGLATMCVGVGQGLALAIERV
notes: full length, 400 residues plus 22 vector residues; N-terminal His-tag with TEV site, pSGC-His, E. coli BL21(DE3) pLysS; tetramer
Regarding B1, the Km was found to be 67.8 ± 8.2 µM and the kcat is listed as 0.7 ± 0.08 S^−1.
